Laboratory results taken from the supplement of paper PMC6757056.
± gives the standard deviation of the averaged measurements.

B1: library; a variant is named by its letters at N, in order (parent)
chain: GCUGUCACCGGUGUAUUACCCUAGUGGUCGACCGGUCUGAUGAGUCUNNNNNNAGACGAAACAGC

Legend:
[1] = variants of: B1; experiment: FACS-Seq fitted mean relative fluorescence mCherry/BFP without ligand (log10 relative fluorescence); ligand: hypoxanthine (xanthine aptamer); higher = higher reporter protein expression; settings: HEK293T, ligand present: no
In short: (§1)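 Fluorescence is reported as a normalized fitted mean of sorted-bin read counts. Lentivirally transduced HEK293T libraries (mCherry ribozyme-switch reporter, EF1α-BFP marker) were enriched, treated with or without ligand for 48 h, and sorted into 6 mCherry/BFP bins for MiSeq sequencing of PCR-amplified genomic DNA. The normal fit was on log10(mCherry/BFP), scaled to five spiked-in control ribozymes.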

[2] = variants of: B1; experiment: normalized RNA/DNA level with ligand (relative to sTRSVctl = 100) (log10 (% of sTRSVctl)); ligand: hypoxanthine (xanthine aptamer); higher = less ribozyme self-cleavage, higher mRNA level; settings: ligand concentration (+) RNA-Seq: 5 mM, HEK293T, reporter: mCherry (pCS4076), ligand present: yes
In short: (§2)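 RNA level was computed as RNA reads over DNA reads divided by a spiked-in non-cleaving sequence or by the top sequences, then scaled and log-transformed. Scaling was ×100 with log10, the top group was 25 sequences, and the threshold was ≥100 DNA reads. The reads came from HEK293T cells transfected at 4 µg per 6-well well with ribozyme switch library plasmids (mCherry, or eGFP in some ligand experiments). Total RNA was extracted with EDTA 72 h after transfection, with any ligand added 1 h before it.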

[3] = variants of: B1; experiment: normalized RNA/DNA level without ligand (relative to sTRSVctl = 100) (log10 (% of sTRSVctl)); ligand: hypoxanthine (xanthine aptamer); higher = less ribozyme self-cleavage, higher mRNA level; settings: HEK293T, reporter: mCherry (pCS4076), ligand present: no
In short: as §2

[4] = variants of: B1; experiment: FACS-Seq fitted mean relative fluorescence mCherry/BFP with ligand (log10 relative fluorescence); ligand: hypoxanthine (xanthine aptamer); ligand concentration (+) FACS-Seq: 5 mM; higher = higher reporter protein expression; settings: HEK293T, ligand present: yes
In short: as §1

Variant	FACS-Seq fitted mean (log10) [1]	normalized RNA/DNA level with ligand (log10) [2]	normalized RNA/DNA level without ligand (log10) [3]	FACS-Seq fitted mean (log10) [4]
AUAGGA	0.382 ± 0.011	1.9 ± 0.042	1.658 ± 0.015	0.529 ± 0.017
AGUUUA	0.474 ± 0.011	1.93 ± 0.025	1.79 ± 0.027	0.651 ± 0.098
GGUGUG	-0.123 ± 0.13	1.783 ± 0.013	1.29 ± 0.051	0.24 ± 0.004
GGUGUA	0.31 ± 0.061	1.91 ± 0.027	1.765 ± 0.0096	0.381 ± 0.023
GUAUCU	0.165 ± 0.12	1.966 ± 0.0064	1.94 ± 0.025	0.536 ± 0.059
UGUGAC	0.481 ± 0.0063	1.94 ± 0.022	1.839 ± 0.0072	0.42 ± 0.077
UUACUG	0.491 ± 0.085	1.93 ± 0.039	1.67 ± 0.034	0.536 ± 0.13
CGUGCU	0.599 ± 0.1	1.909 ± 0.0056	1.899 ± 0.0073	0.518 ± 0.04
CGUGCA	0.438 ± 0.026	1.932 ± 0.0054	1.72 ± 0.03	0.662 ± 0.033
CUACUA	0.522 ± 0.16	1.9 ± 0.046	1.78 ± 0.02	0.51 ± 0.059
AGUUCA	0.179 ± 0.0096	1.91 ± 0.034	1.802 ± 0.0084	0.4165 ± 0.0023
GUACCG	0.26 ± 0.029	1.903 ± 0.0046	1.624 ± 0.0025	0.511 ± 0.015
GUACCA	0.512 ± 0.037	1.944 ± 0.012	1.867 ± 0.006	0.532 ± 0.03
UGUGCG	-0.404 ± 0.074	1.933 ± 0.015	1.684 ± 0.014	0.178 ± 0.0062
GUAGCC	0.609 ± 0.017	1.982 ± 0.014	1.83 ± 0.02	0.678 ± 0.059
GUAGCU	-0.279 ± 0.094	1.98 ± 0.03	1.88 ± 0.063	-0.197 ± 0.0065
GUAGUA	0.68 ± 0.083	1.899 ± 0.01	1.749 ± 0.014	0.725 ± 0.029
GUAGUG	0.125 ± 0.029	1.94 ± 0.037	1.428 ± 0.0021	0.532 ± 0.051

Variant	FACS-Seq fitted mean (log10) [1]	normalized RNA/DNA level with ligand (log10) [2]	normalized RNA/DNA level without ligand (log10) [3]	FACS-Seq fitted mean (log10) [4]
UUACCG	-0.405 ± 0.057	1.899 ± 0.011	1.75 ± 0.052	-0.0713 ± 0.036
AGUCUG	0.186 ± 0.024	1.9 ± 0.066	1.54 ± 0.029	0.414 ± 0.053
AUAGAA	0.429 ± 0.005	1.87 ± 0.089	1.705 ± 0.0096	0.6216 ± 0.0039
AUAGAC	0.72 ± 0.12	1.88 ± 0.035	1.8 ± 0.018	0.755 ± 0.051
AGUGGC	-0.495 ± 0.045	1.98 ± 0.033	1.83 ± 0.023	0.0818 ± 0.018
AGUGGA	0.318 ± 0.0063	1.9085 ± 0.001	1.62 ± 0.047	0.468 ± 0.084
CGUGGA	0.123 ± 0.011	1.96 ± 0.02	1.729 ± 0.0031	0.396 ± 0.057
CGUGGG	0.0862 ± 0.026	1.85 ± 0.022	1.3 ± 0.078	0.505 ± 0.047
GGUGAC	0.507 ± 0.018	1.8808 ± 0.00054	1.798 ± 0.0044	0.543 ± 0.1
GGUGAG	-0.242 ± 0.013	1.77 ± 0.063	1.29 ± 0.086	0.303 ± 0.045
GGUGAU	0.445 ± 0.047	1.93 ± 0.039	1.763 ± 0.012	0.5584 ± 0.0013
AUAGUG	0.213 ± 0.046	1.82 ± 0.041	1.362 ± 0.012	0.348 ± 0.12
AUAGUA	0.52 ± 0.03	1.88 ± 0.034	1.751 ± 0.013	0.621 ± 0.066
UGUGUG	0.266 ± 0.078	1.93 ± 0.058	1.676 ± 0.0071	0.333 ± 0.086
UGUUUG	-0.153 ± 0.036	2.04 ± 0.037	1.93 ± 0.035	0.0349 ± 0.0062
AGUUAC	0.497 ± 0.083	1.89 ± 0.011	1.775 ± 0.016	0.655 ± 0.14
AGUUAA	0.799 ± 0.015	1.92 ± 0.04	1.76 ± 0.032	0.802 ± 0.094
AGUUAG	0.335 ± 0.052	1.8 ± 0.054	1.44 ± 0.078	0.569 ± 0.019
